Assay results published in patent US20230374104A1 (SEATTLE CHILDREN S HOSPITAL DBA SEATTLE CHILDREN S RESEARCH …, published 2023).

Key:
soluble PD-L1 [1] = biological target: soluble PD-L1 (UniProt Q9NZQ7); experiment: cell binding (H9 cells); printed as pg/ul
soluble PD-L1 [2] = biological target: T1, soluble PD-L1 (UniProt Q9NZQ7 19-238, limits assumed); experiment: competitive binding assay: mixed H9 cells expressing PD1(WT):CD28 (cell trace violet positive) and PD1(A99L):CD28 (negative), incubated with soluble PD-L1 (0.02 pg/uL to 20 ng/ul) for 30 min, streptavidin-APC, flow cytometry
T1 construct: also called PD1-L1
Description: A competitive binding assay was performed to determine relative binding affinity between PD1 chimeric polypeptides, in particular PD1(WT):CD28 polypeptide, and the PD1(A99L):CD28 polypeptide.
A population of H9 cells containing PD1(WT):CD28 polypeptide were labeled with cell trace violet were mixed with a population of H9 cells containing PD1(A99L):CD28 polypeptide. The cells were then incubated with soluble PD-L1 (0.02 pg/uL to 20 ng/ul) for 30 min and then stained with streptavidin-APC. The two populations were separated out by flow analysis into cell trace violet positive (H9 cells containing PD1(WT):CD28 polypeptide) and cell trace violet negative (H9 cells containing PD1(A99L):CD28 polypeptide) populations. The populations were analyzed for APC positivity.

Chain of soluble PD-L1 (UniProt Q9NZQ7) (Q9NZQ7 19-238): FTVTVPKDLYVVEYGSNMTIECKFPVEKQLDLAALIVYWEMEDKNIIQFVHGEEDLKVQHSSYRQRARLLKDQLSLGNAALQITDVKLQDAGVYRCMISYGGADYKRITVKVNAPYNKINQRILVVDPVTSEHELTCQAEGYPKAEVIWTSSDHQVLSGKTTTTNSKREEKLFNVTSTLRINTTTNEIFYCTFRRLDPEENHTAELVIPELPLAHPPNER
T1 sequence (Q9NZQ7 19-238 limits assumed): as the sequence (Q9NZQ7 19-238) above

Row | Kd (soluble PD-L1 [1]) | fold binding affinity relative to PD1(WT):CD28 polypeptide (soluble PD-L1 [2]) | Molecule
1 | 0.0033 mg/L | – | PD1(A99L):CD28 polypeptide
2 | 0.029 mg/L | – | PD1(WT):CD28 polypeptide
3 | – | ~9 fold | PD1(A99L):CD28 polypeptide (receptor, Position 99 is not counted from the initiating Met of the encoded open reading frame, where the changed alanine appears to lie near position 132) LDSPDRPWNPPTFSPALLVVTEGDNATFTCSFSNTSESFVLNWYRMSPSNQTDKLAAFPEDRSQPGQDCRFRVTQLPNGRDFHMSVVRARRNDSGTYLCGAISLAPKLQIKESLRAELRVTERRAEVPTAHCPSPLFPGPSKPFWVLVVVGGVLACYSLLVTVAFIIFWVRSKRSRLLHSDYMNMTPRRPGPTRKHYQPYAPPRDFAAYRS
